Measurements published in patent US20120003296A1, “NEW METHODS OF TREATING DRY EYE SYNDROME” (priority 2010, published 2012).

How the values were obtained:
[1] = in vivo; cited from earlier work
[2] = tested on: dry eye; conditions: 2% suspension, versus baseline; cited from earlier work
[3] = local application incl. conjunctival sac, scalp, gums, mucosa, wounds
Source text: The present invention formulation contains only 0.05 IU per drop which can be increased in severe disease states.

[4] = tested on: dry eye syndrome; assay: Therapeutic activity against dry eye syndrome; format: in vivo; conditions: incl. KCS, Sjogren's syndrome, MGD
Source text: Also, the terminology used herein is for the purpose of description and not of limitation.

[5] = Local insulin on ulcers and tooth extraction wounds; format: in vivo; conditions: insulin soaked cotton swabs, 1-3 units in normal saline
Source text: (§1) The present inventors have used insulin for more than a decade to enhance the effectiveness of locally injected therapeutic agents especially cancers with chemotherapeutic agents with remarkable results. […] It stimulated the fibroblast, endothelial cell, angiogenesis and skin cell growth resulting accelerated wound healing.

[6] = tested on: indolent ulcers; assay: as above; format: in vivo; conditions: insulin spray, anywhere in the body incl. oral and nasal cavity
Source text: as §1

[7] = tested on: advanced and localized cancers; assay: Insulin followed by chemotherapeutic agents injected into cancer masses; format: in vivo; conditions: insulin followed by anticancer chemotherapeutic agents, direct injection
Source text: Our study of injecting Insulin followed by anticancer chemotherapeutic agents directly into cancer masses on hundreds of advanced and localized cancers supports these finding also. […] We treated multiple brain cancer patients by directly injecting insulin with mannitol followed by with specific anti tumor Chemo-therapeutic agents with dextrose and heparin directly infused into the internal carotid artery with positive results. Patients lived longer with good quality of life with less side effects to the chemotherapy agents.

[8] = tested on: musculoskeletal pain; assay: Prolotherapy injectate with insulin; format: in vivo; conditions: with insulin versus prolotherapy agent alone
Source text: The inventors have used glucose along with insulin and lidocaine in our prolotherapy injectate for various musculoskeletal pain, including arthritis, back pain, neck pain, fibromyalgia, sports injuries, unresolved whiplash injuries, carpal tunnel syndrome, chronic tendonitis, partially torn tendons, ligaments and cartilage, degenerated or herniated discs, TMJ pain and sciatica. It is important to note the principle of prolotherapy is to induce fibroblasts to multiply and lay more ligaments (collagen); make the ligaments and tendons stronger inducing sterile inflammation at the site. Insulin can enhance the multiplication of fibroblasts by these prolotherapy and other sterile inflammatory therapeutic agents to make ligaments stronger. […] Insulin increased the fibroblast mitosis and thus increased production of collage to strengthen the ligaments of the painful joint giving long lasting fast pain relief with stronger functional joints. When insulin is therapeutically effective ever in taking away the pain by various prolotherapy therapeutic agents, one can see how effective it is in treating the dry eye syndrome and associated diseases of the eye.

[9] = tested on: pain; assay: Trigger point and joint injection of local anesthetic with insulin; format: in vivo; conditions: local anesthetic with insulin versus injectate without insulin
Source text: Trigger points or trigger sites are described as hyperirritable spots in skeletal muscle that are associated with palpable nodules in taut bands of muscle fibers whose compression may elicit local tenderness, referred pain, or local twitch response. There are many therapies to take away the tenderness and sore spots.

[10] = tested on: MCF-7 human breast cancer cells; conditions: in vitro, MCF-7 cells, methotrexate in presence of insulin; cited from earlier work
[11] = tested on: dry eye syndrome; assay: MSM mixed with insulin as eye drops; format: in vivo; conditions: aqueous MSM mixed with insulin, chemotherapy, allergic eyes, contact lens wearers
Source text: Methylsulfonylmethane (MSM), is an organosulfur compound with the formula (CH3)2SO2, a metabolite of DMSO. It is also known by several other names: DMSO2, MSM, Methylsulfonylmethane, methyl sulfone, and dimethyl sulfone. It is marketed as dietary supplement and also used for osteoarthritis, allergic rhinitis, interstitial cystitis, and throat spray for snoring. Stanley W. Jacob, M.D., of the Oregon Health and Science University, reports using MSM to treat over 18,000 patients with a assortment of ailments (MSM the Definitive Guide: The Nutritional Breakthrough for Arthritis, Allergies and More. Freedom Press. 2003. ISBN 9781893910225. http://www.amazon.com/MSM-Definitive-Guide-Nutritional-Breakthrough/dp/1893910229). It is soluble in water, and a good solvent like DMSO. We have used aqueous solutions of MSM, filtered and sterilized and mixed with insulin and used as eye drops to treat dry eye syndrome during chemotherapy, allergic conditions of the eyes and contact lens wearers with good results.

[12] = tested on: scleroderma and systemic lupus erythematosus; conditions: with insulin
[13] = relative to testosterone; cited from earlier work
[14] = tested on: dry eye; conditions: ophthalmic drops, compared to artificial tears or testosterone; cited from earlier work
[15] = tested on: dry mouth and dry eyes conditions; assay: ADT (Sialor) orally and/or as eye drops in dry mouth and dry eyes; format: in vivo; conditions: 25 mg orally and/or ophthalmic drops; chemotherapy patients, menopausal women, chronic smokers
Experimental: Another drug available is an organo sulfur compound, anethole dithiolethione (ADT, 5-[p-methoxyphenyl]-3H-1,2-dithiol-3-thione, trade name Sialor™) with hardly any side effects. It stimulates the secretion of saliva in patients with autoimmune exocrinopathy (e.g. Sjogren's syndrome). Sialor alleviates the symptoms of xerostomia and xeroophthalmia. We have used Sialor, 25 mg orally and/or ophthalmic drops with successes in these conditions especially those on chemotherapy, menopausal women, and chronic smokers with dry mouth and dry eyes conditions. ADT increases the glutathione synthesis by activating gamma-glutamyl-cysteine synthetase. ADT reduced both polymorphonuclear neutrophils adhesion to ROS (reactive oxygen species—can be effective in post perfusion adhesion of white blood cells to ROS with resultant damage) and stimulated tyrosine phosphorylation.
Another drug available to treat KCS is a organo sulfur compound, anethole dithiolethione (ADT—trade name Sialor) with hardly any side effects. It stimulates the secretion of saliva, in patients with autoimmune exocrinopathy (Sjogren's syndrome). Sialor alleviates the symptoms of xerostomia and xeroophthalmia. […]

[16] = tested on: Wurzburg cells; conditions: cited from earlier work

Question: For Insulin lispro, which “Onset of Action in hours” value [1] is on record?
Answer: The value was “¼-½”.

Question: Which “Onset of Action in hours” value [1] does the source give for Insulin glulisine here?
Answer: Its value is “¼-½”.

Question: For `O=C(NC(Cc1cc(=O)[nH]c2ccccc12)C(=O)O)c1ccc(Cl)cc1` (stereo not drawn) [Rebamipide], which fluorescein corneal staining [2] is on record?
Answer: The fluorescein corneal staining was “decreased from baseline”.

Question: What about the “subjective parameters such as gritty/sandy sensation and burning/pain” value [2] of the same compound?
Answer: The value was “decreased from baseline”.

Question: With Insulin aspart as the compound, how does the “Onset of Action in hours” value [1] read?
Answer: The value was “¼-½”.

Question: With Regular (soluble): short-acting insulin as the compound, how does the “Effective duration of action” value [1] read?
Answer: The value was 3 to 6 h.

Question: What about the “Maximum duration” value [1] of the same compound?
Answer: Its value is 6 to 8 h.

Question: What about the “Peak action in hours” value [1] of the same compound?
Answer: Its value is 2 to 3 h.

Question: For insulin, which “blood sugar levels (hypoglycemic effects)” value [3] is on record?
Answer: The value was “did not change the blood sugar levels”.

Question: And the “therapeutic activity against dry eye syndrome” value [4]?
Answer: The value was “high therapeutic activity”.

Question: And the “healing after teeth extraction” value [5]?
Answer: Its value is “rapid healing with reduced pain”.

Question: What about the “healing of indolent ulcers” value [6] of the same compound?
Answer: Its value is “augmented the healing”.

Question: And the “palpable tumors including enlarged lymph nodes” value [7]?
Answer: The value was “literally melted away”.

Question: And the effectiveness of prolotherapy [8]?
Answer: The effectiveness of prolotherapy was “more effective”.

Question: And the relief of pain [9]?
Answer: Its relief of pain is “rapid and effective relief of pain”.

Question: What about the “increase of the cytotoxic effect of methotrexate” value [10] of the same compound?
Answer: Its value is “up to 10,000 fold”.

Question: With `CS(C)(=O)=O` [MSM, Methylsulfonylmethane] as the compound, how does the “treatment outcome in dry eye syndrome” value [11] read?
Answer: The value was “good results”.

Question: Which results are given for “NPH (isophane): intermediate-acting insulin”?
Answer: Effective duration of action [1]: 10 to 16 h; Maximum duration [1]: 14 to 18 h; Onset of Action [1]: 2 to 4 h; Peak action in hours [1]: 6 to 10 h

Question: Which results are given for Insulin glargine?
Answer: Effective duration of action [1]: 18 to 20 h; Maximum duration [1]: 20 to 24 h; Onset of Action [1]: 3 to 4 h; Peak action in hours [1]: 8 to 16 h

Question: For `O=P1(N(CCCl)CCCl)NCCCO1` (stereo not drawn) [cyclophosphamide, Cyclophosphamide], which “treatment outcome in scleroderma and systemic lupus erythematosus” value [12] is on record?
Answer: The value was “very successfully”.

Question: Which “androgenic activity of testosterone” value [13] does the source give for `C[C@]12CC[C@H](O)CC1=CC[C@@H]1[C@@H]2CC[C@]2(C)C(=O)CC[C@@H]12` [DHEA, dehydroepiandrosterone] here?
Answer: Its value is 5%.

Question: And the subjective patient response [14]?
Answer: Its subjective patient response is “felt better”.

Question: Which results are given for `COc1ccc(-c2cc(=S)ss2)cc1` [ADT, 5-[p-methoxyphenyl]-3H-1,2-dithiol-3-thione]?
Answer: treatment outcome in dry mouth and dry eyes conditions [15]: successes; H2O2 induced lipid peroxidation ([16]; ADT pretreatment of Wurzburg cells): remarkably inhibited; glutathione levels ([16]; compared with untreated Wurzburg cells): rises glutathione levels significantly

Question: With “IGF-1: Insulin-like Growth factor (IGF-1), which has insulin like effects” as the compound, how does the “therapeutic activity against dry eye syndrome” value [4] read?
Answer: Its value is “high therapeutic activity”.

Question: What does the source list for Insulin detemir?
Answer: Effective duration of action [1]: 14 h; Maximum duration [1]: ~20 h; Onset of Action [1]: 3 to 4 h; Peak action in hours [1]: 6 to 8 h
